Data published in patent US20130171174A1 (INDUSTRIAL TECHNOLOGY RESEARCH INSTITUTE, published 2013).

Biological target: T1, human epidermal growth factor receptor (EGFR) on A431 cells (human, UniProt P00533 25-1210)
T1 construct: whole, on cells; The target is presented on fixed A431 cells
Test: ELISA on fixed A431 cells, anti-human Fc-HRP detection, SigmaPlot fit
Procedure: A431 cells in a concentration of 4×10⁵ cell/ml were seeded in Corning CellBIND 96-well plate for 16-24 h before assay. After PBS wash, the A431 cells were fixed with BD CytoFix fixation buffer for 15-20 min at room temperature. After fixation and PBS wash procedure, the A431 cells were blocked with StartingBlock blocking buffer for 30 min at 37° C. Plates were washed three times with PBST wash buffer and incubated with the indicated concentrations of dAb-D2-hFc and VH-dAb-D2×4-Ig in 50 ul StartingBlock blocking buffer on ice for 1.5 h. Wells were washed three times with PBST wash buffer. After washing, the plate was incubated with HRP-conjugated anti-human Fc antibody diluted 1:10,000 in StartingBlock blocking buffer on ice for 1 hour. Plates were washed and incubated with TMB. Absorbance at 450 nm was read on a microplate reader.

Kd: ~6 nM
B1: VH-dAb-D2×4-Ig tetrameric antibody (antibody, V domains shown)
V domain 1: QVQLLESGGGLVQPGGSLRLSCAASGYRFNSEAMGWVRQAPGKGLEWVSSINMRGGSTYYADSVKGRFTISRDNSKNTLYLQMNSLRAEDTAVYYCATVPRSMWWAGLTAKPIRYWGQGTLVTVSS
V domain 2: QVQLLESGGGLVQPGGSLRLSCAASGYRFNSEAMGWVRQAPGKGLEWVSSINMRGGSTYYADSVKGRFTISRDNSKNTLYLQMNSLRAEDTAVYYCATVPRSMWWAGLTAKPIRYWGQGTLVTVSS
notes: also called tetravalent antibody; tetravalent fusion protein; not shown: CH1, CH2 and CH3 of human IgG; CL of human IgG
